Assay results taken from patent US20140274782A1, “AFFINITY REAGENTS AND METHODS FOR DETECTION, PURIFICATION, AND PROTEOMIC ANALYSIS OF METHYLATED PROTEINS” (The Board of Trustees of the Leland Stanford Junior …, priority 2013, published 2014).

How the values were obtained:
[1] = test system: 3×MBT domain of L3MBTL1; assay: Triple SILAC pull-down, 3xMBT/3xMBTD355N ratio (cytoplasmic, nuclear and chromatin fractions of 293T cells); format: binding, human; details: for 3xMBT/D355N UNC Heavy: experiment with UNC0638 in heavy SILAC media; for 3xMBT/D355N UNC Light: experiment with UNC0638 in light SILAC media;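 as to all read-outs here: proteins quantified with MaxQuant, requiring at least two unique peptides and quantification in both label directions, normalized to the mean of proteins from a digested loading control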
[2] = target: T1, G9a and GLP (Homo sapiens, UniProt Q96KQ7+Q9H9B1); assay: Triple SILAC pull-down after UNC0638 treatment of 293T cells, DMSO/UNC0638 ratio of protein captured by 3×MBT; format: cell-based; details: for Relative to UNC0638 UNC Heavy: UNC0638 in heavy SILAC media; for Relative to UNC0638 UNC Light: UNC0638 in light SILAC media; for Relative to UNC0638 Average: average of UNC Light and UNC Heavy experiments; for Candidate G9a/GLP target: reduced association with 3xMBT after UNC0638 treatment;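 as to all read-outs here: mass spectrometry (Q-Exactive) SILAC quantitation, DMSO/UNC0638 ratio computed after subtracting 3×MBTD355N mutant pull-down background, only proteins with at least twofold 3×MBT over mutant signal considered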
T1 construct: endogenous in cells; host or cells: HEK 293T
T1 sequence (Q96KQ7 2-1210 limits assumed): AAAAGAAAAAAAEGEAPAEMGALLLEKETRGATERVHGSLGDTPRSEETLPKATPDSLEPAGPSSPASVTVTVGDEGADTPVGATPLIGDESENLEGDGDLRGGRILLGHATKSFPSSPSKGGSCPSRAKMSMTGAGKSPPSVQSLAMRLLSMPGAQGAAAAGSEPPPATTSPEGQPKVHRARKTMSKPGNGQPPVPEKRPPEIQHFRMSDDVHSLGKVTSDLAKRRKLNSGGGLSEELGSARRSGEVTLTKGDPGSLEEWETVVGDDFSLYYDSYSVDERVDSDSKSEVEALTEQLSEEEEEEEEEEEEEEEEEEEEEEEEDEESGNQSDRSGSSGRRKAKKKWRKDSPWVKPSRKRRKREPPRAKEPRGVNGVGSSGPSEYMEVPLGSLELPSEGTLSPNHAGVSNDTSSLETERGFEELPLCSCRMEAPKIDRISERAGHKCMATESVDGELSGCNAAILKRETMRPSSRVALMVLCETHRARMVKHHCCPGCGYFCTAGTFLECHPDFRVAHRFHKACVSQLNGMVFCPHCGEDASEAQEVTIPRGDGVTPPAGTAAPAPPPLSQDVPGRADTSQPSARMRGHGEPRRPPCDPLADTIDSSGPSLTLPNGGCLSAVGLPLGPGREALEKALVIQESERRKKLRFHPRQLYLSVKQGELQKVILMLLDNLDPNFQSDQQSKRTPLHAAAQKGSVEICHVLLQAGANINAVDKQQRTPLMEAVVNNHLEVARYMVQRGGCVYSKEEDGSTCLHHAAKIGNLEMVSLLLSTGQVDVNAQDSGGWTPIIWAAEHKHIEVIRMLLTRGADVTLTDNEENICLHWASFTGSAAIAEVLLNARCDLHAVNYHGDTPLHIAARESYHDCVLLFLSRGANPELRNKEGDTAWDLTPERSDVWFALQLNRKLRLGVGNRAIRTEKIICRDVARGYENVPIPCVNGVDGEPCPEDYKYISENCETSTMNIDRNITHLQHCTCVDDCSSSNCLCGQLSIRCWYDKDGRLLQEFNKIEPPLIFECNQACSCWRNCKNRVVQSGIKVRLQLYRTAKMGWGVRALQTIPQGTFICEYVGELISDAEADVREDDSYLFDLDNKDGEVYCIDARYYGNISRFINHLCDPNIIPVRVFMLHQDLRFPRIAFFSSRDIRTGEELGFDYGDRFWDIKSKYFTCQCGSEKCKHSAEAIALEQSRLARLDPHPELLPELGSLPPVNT
T1 sequence (Q9H9B1 2-1298 limits assumed): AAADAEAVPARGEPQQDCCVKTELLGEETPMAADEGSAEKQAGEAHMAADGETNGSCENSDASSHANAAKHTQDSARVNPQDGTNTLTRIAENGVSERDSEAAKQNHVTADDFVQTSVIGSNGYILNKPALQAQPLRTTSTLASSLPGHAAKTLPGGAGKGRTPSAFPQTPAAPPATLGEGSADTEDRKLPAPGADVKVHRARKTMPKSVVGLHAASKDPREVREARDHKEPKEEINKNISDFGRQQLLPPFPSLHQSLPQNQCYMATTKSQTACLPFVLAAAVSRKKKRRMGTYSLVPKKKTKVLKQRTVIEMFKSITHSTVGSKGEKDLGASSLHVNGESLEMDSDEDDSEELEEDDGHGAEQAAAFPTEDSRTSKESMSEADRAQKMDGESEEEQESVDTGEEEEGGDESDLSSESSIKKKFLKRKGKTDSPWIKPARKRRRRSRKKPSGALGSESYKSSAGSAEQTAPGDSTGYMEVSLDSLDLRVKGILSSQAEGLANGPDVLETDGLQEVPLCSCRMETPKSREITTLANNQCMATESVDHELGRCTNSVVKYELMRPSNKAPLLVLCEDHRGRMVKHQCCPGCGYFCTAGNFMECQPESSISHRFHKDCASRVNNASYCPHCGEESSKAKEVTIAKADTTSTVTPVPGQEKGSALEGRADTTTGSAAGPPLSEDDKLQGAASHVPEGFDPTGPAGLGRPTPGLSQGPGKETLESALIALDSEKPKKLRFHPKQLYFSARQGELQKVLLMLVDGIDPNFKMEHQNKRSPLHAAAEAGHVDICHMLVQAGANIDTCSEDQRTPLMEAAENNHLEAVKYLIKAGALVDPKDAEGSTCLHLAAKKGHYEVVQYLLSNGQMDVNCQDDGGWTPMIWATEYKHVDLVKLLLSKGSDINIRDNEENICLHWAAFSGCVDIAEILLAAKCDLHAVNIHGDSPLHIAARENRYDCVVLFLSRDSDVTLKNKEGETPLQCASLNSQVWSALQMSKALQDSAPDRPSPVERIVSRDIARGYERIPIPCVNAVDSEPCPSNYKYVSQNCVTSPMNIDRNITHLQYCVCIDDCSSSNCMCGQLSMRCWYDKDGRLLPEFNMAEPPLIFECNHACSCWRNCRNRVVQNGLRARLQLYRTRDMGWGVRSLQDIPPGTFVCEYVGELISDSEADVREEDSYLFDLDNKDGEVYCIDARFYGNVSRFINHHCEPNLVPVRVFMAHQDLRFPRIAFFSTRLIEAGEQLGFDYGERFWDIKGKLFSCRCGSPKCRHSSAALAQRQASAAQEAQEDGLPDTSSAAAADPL
Method: For UNC0638 treatments cells were treated for 24 hours with UNC0638 at 2.5 μM or DMSO vehicle control. One experiment treated cells in light media with UNC0638, the other treated cells in heavy media. Both experiments included cells in medium media treated with DMSO for negative control pull-down with 3×MBTD355N.
UNC0638 treatment experiments used a Q-Exactive mass spectrometer (ThermoFisher Scientific). A 25 cm HPLC column with 3 μm Reliasil (Orochem) was used to separate peptides over a 4 hour gradient from 0 to 75% acetonitrile. Ions were generated using a custom nanospray source flowing at 250 nL/minute. Mass spectrometry settings were 70,000 MS1 resolution, data dependent selection of up to 20 precursor ions per cycle, dynamic exclusion of 30 seconds and isolation window of 2 m/z.
For UNC0638 experiments the treated vs. untreated ratio was determined by subtracting the value from 3×MBTD355N prior to dividing values from the light and heavy channels. Only proteins showing a two-fold signal to background ratio (3×MBT/3×MBTD355N) were evaluated as potential G9a/GLP substrates.

[3] = SILAC ratio, pull-down 3xMBT vs 3xMBTD355N
[4] = SILAC ratio DMSO/UNC0638 of protein pulled down with 3xMBT
[5] = SILAC ratio 3xMBT vs 3xMBTD355N pull-down, 293T cells, all values in log base 2
[6] = SILAC ratio DMSO relative to UNC0638, pull-down with 3xMBT, all values in log base 2

Substance | 3xMBT/D355N UNC Heavy [1, 3] [log base 2] | 3xMBT/D355N UNC Light [1, 3] [log base 2] | Relative to UNC0638 UNC Heavy [2, 4] [log base 2] | Relative to UNC0638 UNC Light [2, 4] [log base 2] | Relative to UNC0638 Average [2] [log base 2] | Candidate G9a/GLP target [2] | 3xMBT/D355N UNC Heavy [1, 5] [log base 2] | 3xMBT/D355N UNC Light [1, 5] [log base 2] | Relative to UNC0638 UNC Heavy [2, 6] [log base 2] | Relative to UNC0638 UNC Light [2, 6] [log base 2] | Relative to UNC0638 Average ([2]; all values in log base 2) [log base 2]
PRKDC | 1.96 | 2.39 | 0.21 | 0.95 | 0.58 | ✓ | – | – | – | – | –
PRPF8 | 2.51 | 2.50 | 0.11 | 0.17 | 0.14 | – | – | – | – | – | –
PSIP1 | 2.72 | 2.92 | 0.17 | 0.15 | 0.16 | – | – | – | – | – | –
PSME3 | 1.70 | 1.89 | 0.62 | −0.01 | 0.31 | – | – | – | – | – | –
PTBP1 | 2.61 | 3.23 | 0.33 | 0.25 | 0.29 | – | – | – | – | – | –
RAD50 | – | – | – | – | – | – | 2.20 | 2.08 | 0.15 | −0.14 | 0.01
RDBP | – | – | – | – | – | – | 2.37 | 2.82 | 0.32 | −0.12 | 0.10
RECQL | 3.43 | 5.03 | 0.71 | 0.21 | 0.46 | ✓ | – | – | – | – | –
RFC4 | 1.95 | 1.80 | 0.32 | 0.26 | 0.29 | – | – | – | – | – | –
RPTOR | – | – | – | – | – | – | 1.86 | 1.58 | 0.54 | −0.81 | −0.14
SEC24C | – | – | – | – | – | – | 2.58 | 2.17 | 0.21 | −0.05 | 0.08
SH3GL1 | 1.99 | 2.38 | 0.60 | −0.23 | 0.19 | – | – | – | – | – | –
SMARCA5 | 2.49 | 2.61 | 0.47 | 0.32 | 0.39 | ✓ | – | – | – | – | –
SNRNP70 | – | – | – | – | – | – | 3.26 | 3.57 | 0.22 | −0.01 | 0.11
SNRNP200 | 2.08 | 3.14 | 0.19 | 0.26 | 0.22 | – | – | – | – | – | –
SNRPA | 4.73 | 5.10 | 0.16 | 0.11 | 0.14 | – | – | – | – | – | –
SRSF3 | 2.63 | 2.55 | 0.25 | 0.23 | 0.24 | – | – | – | – | – | –
